Experimental data taken from patent publication US20260069689A1 (Regeneron, published 2026).
Substitutions are numbered along the chain they refer to.

B1: mAb14256 (antibody, V domains shown)
VH: QVQLQESGPGLVKPSETLSLTCTVSGGSISSHYWSWIRQPPGKGLEWIGYIYYSGSSNYNPSLKSRVTISVDTSKNQFSLKLNSVTAADTAVYYCARHYDILTGFDWFDPWGQGTLVTVSS
VL: QSVLTQPPSVSGAPGQRVTISCTGSSSNIGTHYDVHWYQQLPGTAPKLLIYGNSNRPSGVPDRFSGSKSGTSASLAITGLQAEDEADYYCQSFDNSLTAPYVFGTGTKVTVLG
B2: mAb14285 (antibody, V domains shown)
VH: QVQLVQSGAEVKKPGASVKVSCKASGYTFTGYFIHWVRQAPGQGLEWMGWISPISGGTNYAQKFQGRVTVTRDTSITTAYMELSRLTSDDTAVYHCAREGGTWKGDFDYWGQGTLVTVSS
VL: QSALTQPASVSGSPGQSITISCTGTSSDVESYNLVSWYQQHPGKAPKLMIYEGSKRPSGVSNRFSGSKSGNTASLTISGLQAEDEADYYCSSYAGSSTWVFGGGTKLTVLG
B3: mAb14280 (antibody, V domains shown)
VH: QVQLVQSGAEVKKPGASVRVSCKASGYTFTGNYIHWVRQAPGQGLEWMAWINPNSGGKNYAQKFQGRVTLTRDTSVNTAYMELSRLRSDDTAMYYCARDVNYNILTGPGGLWGQGTLVTVSS
VL: QSALTQPPSASGSPGQSVTISCTGTSSDVGGYNFVSWYQQHPGKAPKLMIYEVSKRPSGVPDRFSGSKSGNTASLTVSGLQAEDEADYYCSSYAGSNNFVFGTGTKVTVLG
B4: mAb14234 (antibody, V domains shown)
VH: QVQLVESGGGVVQPGRSLRLSCAASGFTFSSYGIHWVRQAPGKGLEWVAIIWYDGSEKYYADSVKGRFTISRDNSKNTLFLQMNSLEAEDTAVYYCARGPDLLTGYYNYFYYGMDVWGQGTTVTVSS
VL: QSVLTQPPSVSGAPGQRVTISCTGSSSNIGIGYDVHWYQQLPGTVPKLLIYGNTNRPSGVPDRFSGSKSGTSASLAITGLQAEDEADYYCQSYDSSLSSYVFGTGTKVTVLG
B5: mAb14232 (antibody, V domains shown)
VH: QITLKESGPTLVKPTQTLTLTCTFSGFSLSASGVGVGWIRQPPGKALEWLALIYWDDDKRYSPSLKSRLTITKDTSKNQVVLTMTNMDPVDTATYYCAQHKVATIFDYWGQGTLVTVSS
VL: QSALTQPPSASGSPGQSVTISCTATSSDVGNYNYVSWYQQHPGKAPKLMIYEVTKRPSGVPDRFSGSKSGNTASLTVSGLQAEDEADYYCSSYAGSWGVFGGGTKLTVLG
B6: mAb14292 (antibody, V domains shown)
VH: EVQLVESGGGLVQPGGSLRLSCVASGFAFSTYEMNWVRQAPGKGLEWVSYISSSGSTIYYADSVKGRLTISRDNVKNSLYLQMNSLRVEDTAIYYCARDAIRNNDILTDPATFDPWGQGTLVTVSS
VL: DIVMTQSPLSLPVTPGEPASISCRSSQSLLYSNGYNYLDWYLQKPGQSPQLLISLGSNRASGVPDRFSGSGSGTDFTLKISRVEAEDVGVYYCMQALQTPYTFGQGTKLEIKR
B7: mAb15156 (antibody, V domains shown)
VH: QLQLQESGPGLVKSSETLSLTCTVSASITGSTYYWGWIRQPPGKGLEWIGSIYYSGTTYYKASLKSRVTISVDTSKNQFSLKLTSVTVADTAVYYCVSHLLGNYHKYGMDVWGQGTTVTVSS
VL: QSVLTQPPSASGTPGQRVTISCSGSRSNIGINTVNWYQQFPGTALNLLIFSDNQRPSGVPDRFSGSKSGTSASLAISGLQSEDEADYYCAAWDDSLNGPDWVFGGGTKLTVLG
B8: mAb15157 (antibody, V domains shown)
VH: EVQLVESGGALVQPGGSLRLSCAASGFPFTIYAMTWVRQAPGKGLEWVSVITGSGDSTYYADSVKGRFTISRDNSKNTLYLQMNSLRAEDTAVYYCVKTGEGFFYYYYGMDVWGQGTTVTVSS
VL: QSVLTQPPSVSAAPGQKVTISCSGSSSNIGNSYISWYQQLPGTAPKLLIYVNNKRPSGIPDRFSGSKSGTSATLGITGLQTGDEADYYCGTWDSSLSAGVFGSGTKVTVLG
B9: mAb15158 (antibody, V domains shown)
VH: EVQLVESGGGLVQPGGSLRLSCAASGFSFSSNWMSWVRQAPGKGLEWVGNINQDGSEKYYVDSVEGRFTISRDNAKKSLYLQMNSLRAEDTAVYYCARDLGVLWFGDFVDWGQGALVTVSS
VL: DIQMTQSPSSLSASVGDRVTITCRASQAISNSLAWYQQKPGKAPKLLLYAASTLESGVPSRFSGSGSGTDYTLTISSLQPEDFATYYCLQYYGSPRTFGQGTKVEIKR
B10: mAb15159 (antibody, V domains shown)
VH: EVQLVESGGGLVQPGGSLRLSCAASGITVSSNYMTWVRQAPGKGLEWVSLIYSGGSTFYADSVRGRFTISRDNSKNTLYLQMNSLRAEDTAVYYCARDLVVYGMDVWGQGTTVTVSS
VL: DIQLTQSPSSLSASVGDRVTITCRASQGISSYLAWYQQKPGKAPKLLIYAASTLQSGVPSRFSGSGSGTDFTLTISSLQPEDFATYYCQHLNSDPHTFGQGTKLEIKR
B11: mAb15160 (antibody, V domains shown)
VH: EVQLVESGGGLVQPGGSLRLSCSASGFTFSRYAMYWVRQAPGKGLEYVSAISSDGGSTYDADSVKGRFTISRANSKNTLYLQMSSLRAEDTAVYYCVKGLRELLYYYYGMDVWGQGTTVTVSS
VL: DIQMTQSPSSLSASVGDRVTITCRAGQSISSFLNWYQQKPGKAPKLLIYAASSLQSGVPSRFSGSGSGTDFTLTISSLQPEDFATYYCQQSYITPFTFGPGTKVDIKR
B12: mAb15161 (antibody, V domains shown)
VH: EVQLVESGGGLVQPGGSLRLSCAASGFTFSSYEMNWVRQAPGKGLEWVSYISSSGSILYYADSVKGRFTASRDNAKNSLYLQMNSLRAEDTGVYYCARREYQLLRPFEFWGQGTLVTVSS
VL: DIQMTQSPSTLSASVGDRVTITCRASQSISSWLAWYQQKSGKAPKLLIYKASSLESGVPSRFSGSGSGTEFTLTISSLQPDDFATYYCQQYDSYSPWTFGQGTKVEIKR
B13: mAb15162 (antibody, V domains shown)
VH: EVQLVETGGGLIQPGGSLRLSCAASEFIVSRNYMSWVRQAPGKGLEWVSLIYSGGSTYYADSVKGRFTISRDNSKNILYLQMNSLRAEDTAVYYCARDRGGISDYWGQGTLVTVSS
VL: DIQMTQSPSSLSASVGDRVTITCQASQDINKYLNWFQQKPGKAPKLLIYDASNLETGVPSRFSGSGSGTDFTFTISSLQPEDIATYYCQQYDNLPRTFGQGTKLEIKR
B14: mAb15163 (antibody, V domains shown)
VH: EVQLVETGGGLIQPGESLRLSCAASGFIVSTNYMNWVRQAPGKGLEWVSVIYRGGSTYYADSVKGRFTISRDNSKNTLFLQMNSLRAEDTAVYYCARGHEDFDYDTPASGAFDIWGQGTMVTVSS
VL: B3 VL with Y32H, F34Y, L48V, N98K
B15: mAb15164 (antibody, V domains shown)
VH: EVQLVESGGGLVQPGGSLRLSCAASGFAVSSNYMTWVRQAPGKGLEWVATIYSGDSTYYADSVKGRFTISRHNSKNTLSLQMNSLRADDTAIYYCARLSGVLSGTYNGAFDIWGQGTMVTVSS
VL: B2 VL with V29F, E30G, S31N, L34I, K44Q, L48V, S54N, N71H
B16: mAb15165 (antibody, V domains shown)
VH: EVQLVESGGGLVQPGGSLRLSCAASGFTVSSNYMSWVRQAPGKGLEWVSAIYSGDSTYYADSVKGRFTISKDNSKNTLYLQMNSLRGEDTAVYYCARLGGALQAYDGAFDYWGQGTLATVSS
VL: B2 VL with V29F, E30G, S54N, N62I
B17: mAb15166 (antibody, V domains shown)
VH: EVQLVESGGGLVQPGGSLRLSCAASGFTVTSNYMSWVRQAPGKGLEWVSAIYSGESTYYADSVKGRFTISRDSSKNTLYLQMNSLRVEDTAVYYCASIHDYSNYVGGFDPWGQGTLVTVSS
VL: B2 VL with T25P, V29F, E30G, S54T

What follows are binders tested against T1, SARS-COV-2 RBD extracellular domain expressed with a C-terminal mouse IgG2a Fc (SARS-CoV-2) (assay: Biacore SPR, mAb captured on anti-hFc, 25 C).

Binder	Kd [pM]	koff [s⁻¹]	kon [M⁻¹ s⁻¹]	t½ [h]
B1	63.8	0.000181	2.84e+06	1.06
B2	86.8	0.000502	5.78e+06	0.383
B3	123	0.00037	3.02e+06	0.52
B4	119	0.000121	1.02e+06	1.59
B5	878	0.00173	1.97e+06	0.112
B6	33600	0.0351	1.04e+06	0.005
B7	36.9	5.22e-05	1.41e+06	3.69
B8	187	6.67e-05	357000	2.89
B9	≤ 22.1	≤ 1e-05	453000	19.2
B10	17.2	1.19e-05	691000	16.2
B11	40.6	1.05e-05	258000	18.4
B12	11.9	1.26e-05	1.06e+06	15.2
B13	179	0.00023	1.29e+06	0.837
B14	≤ 10.8	≤ 1e-05	930000	19.2
B15	56.9	2.12e-05	372000	9.09
B16	129		301000	4.96
B17	16	1.62e-05	1.02e+06	11.9

These binders were tested against T1, SARS-COV-2 RBD extracellular domain … (assay: Biacore SPR, mAb captured on anti-hFc, 37 C).

Binder	Kd [pM]	koff [s⁻¹]	kon [M⁻¹ s⁻¹]	t½ [h]
B1	267	0.000473	1.78e+06	0.407
B2	231	0.00103	4.45e+06	0.187
B3	264	0.000772	2.92e+06	0.25
B4	410	0.000402	980000	0.48
B5	893	0.00188	2.1e+06	0.102
B6	34600	0.0644	1.86e+06	0.00333
B7	630	0.000112	178000	1.72
B8	116	0.000107	922000	1.8
B9	170	2.9e-05	171000	6.64
B10	135	2.99e-05	220000	6.44
B11	181	7.9e-05	436000	2.44
B12	46.9	4.9e-05	1.05e+06	3.93
B13	500	0.000101	200000	1.91
B14	60.1	2.5e-05	416000	7.7
B15	51.8	9.4e-05	1.82e+06	2.05
B16	450	4.55e-05	100000	4.23
B17	126	9.8e-05	781000	1.97
